Source: patent US20230365714A1

Columns and labels:
[1] = biological target: ROR122 shuffle variant (Ig-like domain of ROR1, CRD and kringle domain of ROR2) (human (ROR1/ROR2 chimera)) (UniProt Q01973); assay: cell imaging (CellInsight) on CHO cells expressing the shuffle construct
[2] = biological target: ROR112 shuffle variant (Ig-like domain and CRD of ROR1, kringle domain of ROR2) (human (ROR1/ROR2 chimera)) (UniProt Q01973); assay: as above
Sequence of ROR112 shuffle variant (Ig-like domain and CRD of ROR1, kringle domain of ROR2) (human (ROR1/ROR2 chimera)) (Q01973 other isoform, or with tags, fused parts or gaps mutant limits assumed): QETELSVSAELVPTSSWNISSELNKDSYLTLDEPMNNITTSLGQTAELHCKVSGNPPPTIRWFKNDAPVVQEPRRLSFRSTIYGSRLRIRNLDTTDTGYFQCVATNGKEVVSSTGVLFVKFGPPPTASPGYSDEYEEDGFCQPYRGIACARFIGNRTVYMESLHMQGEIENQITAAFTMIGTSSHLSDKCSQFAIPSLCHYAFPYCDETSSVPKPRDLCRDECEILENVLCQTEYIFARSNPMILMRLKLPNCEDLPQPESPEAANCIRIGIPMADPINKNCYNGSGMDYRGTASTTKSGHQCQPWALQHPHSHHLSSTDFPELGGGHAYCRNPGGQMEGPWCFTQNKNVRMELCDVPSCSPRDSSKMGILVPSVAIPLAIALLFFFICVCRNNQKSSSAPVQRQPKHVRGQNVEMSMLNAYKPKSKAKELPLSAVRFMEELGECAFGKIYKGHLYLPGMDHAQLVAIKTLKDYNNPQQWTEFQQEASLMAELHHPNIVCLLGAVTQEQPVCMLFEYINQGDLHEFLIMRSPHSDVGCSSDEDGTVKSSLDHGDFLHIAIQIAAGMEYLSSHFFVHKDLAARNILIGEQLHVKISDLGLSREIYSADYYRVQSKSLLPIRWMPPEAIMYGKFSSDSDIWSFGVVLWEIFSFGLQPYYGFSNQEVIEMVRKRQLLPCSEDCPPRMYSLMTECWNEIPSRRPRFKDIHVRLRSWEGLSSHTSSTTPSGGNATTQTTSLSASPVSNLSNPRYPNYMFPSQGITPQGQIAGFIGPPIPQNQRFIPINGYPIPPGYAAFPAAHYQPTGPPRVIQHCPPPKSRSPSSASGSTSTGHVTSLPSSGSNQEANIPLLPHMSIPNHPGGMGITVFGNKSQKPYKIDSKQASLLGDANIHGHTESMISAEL

Sequence of ROR122 shuffle variant (Ig-like domain of ROR1, CRD and kringle domain of ROR2) (human (ROR1/ROR2 chimera)) (Q01973 other isoform, or with tags, fused parts or gaps mutant limits assumed): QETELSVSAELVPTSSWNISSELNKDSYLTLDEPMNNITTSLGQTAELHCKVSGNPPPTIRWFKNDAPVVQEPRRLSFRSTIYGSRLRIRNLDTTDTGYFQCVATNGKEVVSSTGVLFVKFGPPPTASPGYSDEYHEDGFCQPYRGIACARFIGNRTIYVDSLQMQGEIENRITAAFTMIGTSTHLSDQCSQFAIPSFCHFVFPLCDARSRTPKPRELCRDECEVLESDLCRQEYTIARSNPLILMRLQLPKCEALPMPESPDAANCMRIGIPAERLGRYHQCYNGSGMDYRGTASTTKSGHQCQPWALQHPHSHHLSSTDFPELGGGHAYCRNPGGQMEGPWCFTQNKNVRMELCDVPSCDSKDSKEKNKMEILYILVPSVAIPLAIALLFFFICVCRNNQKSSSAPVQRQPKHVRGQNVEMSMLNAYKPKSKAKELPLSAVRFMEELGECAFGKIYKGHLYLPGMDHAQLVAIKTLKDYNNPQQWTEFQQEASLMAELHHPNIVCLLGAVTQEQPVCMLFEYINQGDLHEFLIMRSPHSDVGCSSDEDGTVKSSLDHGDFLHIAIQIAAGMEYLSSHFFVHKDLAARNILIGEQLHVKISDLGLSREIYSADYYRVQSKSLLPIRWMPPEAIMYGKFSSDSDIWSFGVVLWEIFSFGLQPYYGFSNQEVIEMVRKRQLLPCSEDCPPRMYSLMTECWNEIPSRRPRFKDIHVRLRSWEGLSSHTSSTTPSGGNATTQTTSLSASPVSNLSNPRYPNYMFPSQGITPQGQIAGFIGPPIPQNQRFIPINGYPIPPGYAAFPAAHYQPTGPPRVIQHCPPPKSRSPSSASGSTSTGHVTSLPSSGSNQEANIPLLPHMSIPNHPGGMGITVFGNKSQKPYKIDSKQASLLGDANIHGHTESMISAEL

RFU (total spot intensity) [1]: > 12000 RFU
RFU (total spot intensity) [2]: > 12000 RFU
B1: chIgG1-ROR2-A (antibody, V domains shown)
VH: QSVEESGGRLVTPGTPLTLTCTVSGFSLSSYSMSWVRQAPGKGLEWIGVIYVNSKTWYANWAKGRFTISKTSTTVDLKITSPTTEDTATYFCARGDAGYTTNSWLWGPGTLVTVSS
VL: AFELTQTPASVSEPVGGTVTIKCQASESIDNYCSWYQQKPGQPPKLLIYQAFKLASGVPSRFRGSGSGTQFTLTISDLESDDAATYYCQSYSGISTTAFGGGTEVVVK
